# Residue numbers refer to the chain shown, from its start.
# T1: hIAPP peptide LSSTNVGSNTY, amino acids 27-37 of IAPP (human)
# T1 peptide: LSSTNVGSNTY
# T2: human islet-amyloid polypeptide (IAPP) (human)
# T2 construct: also called hIAPP; human IAPP
# T2 peptide: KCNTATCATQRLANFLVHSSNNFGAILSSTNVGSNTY
# T3: rat IAPP (rat, UniProt P12969 38-74)
# T3 construct: Used as the soluble analyte in the Biacore assay in place of human IAPP; also called rat islet amyloid polypeptide
# T3 peptide (looked up): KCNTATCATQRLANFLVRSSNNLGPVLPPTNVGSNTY
# B1: murine monoclonal antibody 3H6 (antibody, V domains shown)
# VH: EVKLEESGGGLVQPGGSMKLSCVASGFTFSNYWMYWVRQSPEKGLEWVAEIRLKSDNYATHYAESVKGRFTISRDDSKSSVYLQMNSLRAEDTGIYYCTIFDYWGQGTTVTVSS
# VL: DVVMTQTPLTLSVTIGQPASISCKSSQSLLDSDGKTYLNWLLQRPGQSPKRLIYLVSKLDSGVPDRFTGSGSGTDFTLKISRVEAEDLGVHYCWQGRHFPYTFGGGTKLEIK
# notes: also called m3H6; mouse 3H6
# B2: chimeric 3H6 antibody (antibody, V domains shown)
# VH: B1 VH
# VL: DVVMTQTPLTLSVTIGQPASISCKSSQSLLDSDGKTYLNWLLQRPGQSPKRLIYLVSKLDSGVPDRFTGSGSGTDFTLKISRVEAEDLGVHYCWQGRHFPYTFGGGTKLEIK
# notes: also called ch3H6
# B3: humanized 3H6 antibody version H2L1 (antibody, V domains shown)
# VH: EVQLVESGGGLVQPGGSLKLSCAASGFTFSNYWMYWVRQAPGKGLEWVGEIRLKSDNYATHYAESVKGRFTISRDDSKNTAYLQMDSLKTEDTAVYYCTTFDYWGQGTLVTVSS
# VL: DVVMTQSPLSLPVTLGQPASISCKSSQSLLDSDGKTYLNWLQQRPGQSPKRLIYLVSKLDSGVPDRFSGSGSGTDFTLKISRVEAEDVGVHYCWQGRHFPYTFGQGTKLEIK
# notes: also called h3H6-H2L1
# B4: humanized 3H6 antibody version H1L1 (antibody, V domains shown)
# VH: B3 VH with A81V, T100I
# VL: B3 VL
# notes: it was captured on an anti-human chip; also called h3H6-H1L1
# B5: humanized 3H6 antibody version H3L2 (antibody, V domains shown)
# VH: B3 VH with T100I
# VL: B3 VL with H91Y
# notes: also called h3H6-H3L2
# B6: humanized 3H6 antibody version H2L2 (antibody, V domains shown)
# VH: B3 VH
# VL: B3 VL with H91Y
# notes: also called h3H6-H2L2
# Biological target: T1, hIAPP peptide LSSTNVGSNTY, amino acids …
# Assay: hybridoma epitope mapping against shorter peptides
# Procedure: (§1) LA28-3H6 was originally a mouse hybridoma, producing an anti-hIAPP antibody of isotype Gamma 2a k, which resulted from a fusion of spleen cells from a mouse injected with hIAPP coupled to KLH via gluteraldehyde. The mouse was immunized with 25 μg of the conjugate in RIBI adjuvant on days 0, 7, 14, 21, 39, 46, 53, 60, 77, 84, and 91. […] On day 97 the mouse was injected with the IAPP/KLH conjugate both intraperitoneally and intravenously. Three days later the spleen was removed and a cell suspension was generated and frozen. Four months later the suspension was thawed and fused to SP2/0 cells. The fusion was screened against hIAPP, then epitope mapped against shorter peptides and found to react with […] (SEQ ID NO: 4), which corresponds to amino acids 27-37 of IAPP.
row,Binder,binding result
1,B1,binds

# Biological target: T2, human islet-amyloid polypeptide (IAPP)
# Assay: hybridoma screen against hIAPP
# Procedure: as §1
row,Binder,binding result
1,B1,binds

# Biological target: T3, rat IAPP
# Assay: SPR (Biacore), antibody captured on anti-human CM5 chip, rat IAPP as analyte, global 1:1 fit
# Procedure: The affinity of various combinations of 3H6 humanized heavy chains and humanized light chain proteins for IAPP was analyzed on a Biacore instrument. Biacore analysis was performed by preparing an anti-human CM5 chip following the protocol provided in the kit. The 3H6 antibody was captured such that the maximum binding of rat IAPP would not exceed 20-30 RU. […] Data was blank subtracted to both an irrelevant sensor not containing 3H6 and 0 IAPP concentration to account for the dissociation of 3H6 from the anti-human capture. Data was then analyzed using a global 1:1 fit.
Binder,Kd,koff,kon
B1,18.6 nM,0.00152 s⁻¹,81800 M⁻¹ s⁻¹
B2,13.7 nM,0.00147 s⁻¹,107000 M⁻¹ s⁻¹
B3,34.5 nM,0.00294 s⁻¹,85200 M⁻¹ s⁻¹
B4,20.4 nM,0.00231 s⁻¹,113000 M⁻¹ s⁻¹
B5,33.2 nM,0.00625 s⁻¹,188000 M⁻¹ s⁻¹
B6,85.4 nM,0.00646 s⁻¹,75700 M⁻¹ s⁻¹
